Laboratory results published in patent US6531296B1, “Nuclear tyrosine kinase Rak” (The University of North Carolina at Chapel Hill, priority 1995, dated 2003).
Changes are numbered by the printed parent chain.

Tests used:
[1] = molecular target: T1, RbC (Rb amino acids 780-928, carboxy-terminus) (Homo sapiens, UniProt P06400); assay: Rb in vitro binding assay, GST-RbC; conditions: in vitro translated protein
T1 construct: the other fusion protein encoded amino acids 780-928; made in house; host or cells: pGEX-4T plasmid
T1 sequence (P06400 780-928): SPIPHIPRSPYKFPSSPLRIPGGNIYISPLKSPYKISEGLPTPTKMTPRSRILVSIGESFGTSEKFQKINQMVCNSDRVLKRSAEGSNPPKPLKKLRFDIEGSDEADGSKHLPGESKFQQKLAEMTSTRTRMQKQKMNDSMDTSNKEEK
Protocol: (§1) Affinity Precipitations. DNA fragments encoding the amino terminal region of Rak were prepared using the polymerase chain reaction with Pyrococcus furiosus DNA polymerase (Stratagene), and cloned into the pGEX-4T plasmid (Pharmacia). Rb fusion proteins encoding amino acids 379-928 (RbABC, containing the A/B pocket region and the COOH-terminal domain) and 780-928 (RbC for COOH terminal domain only), were prepared similarly. The GST fusion proteins were induced and purified according to the manufacturer's instructions, and were analyzed by SDS-PAGE to ensure that an equal amount of protein was used for the affinity precipitation procedure.
The same procedure was followed for Rb in vitro binding assays, except that the Rb-GST fusion proteins were incubated in the in vitro translated forms of Rak in NP-40 buffer containing 0.5% fraction V bovine serum albumin (Boehringer Mannheim). After three washes with the same buffer, bound proteins were analyzed by SDS-PAGE and detected by autoradiography. […]
An in vitro binding reaction was then used to further identify the essential components for the Rak-Rb interaction. […] As a control, the Src protein was in vitro translated and subjected to the same binding reaction, and no binding of Src to any portion of Rb was detected (data not shown).

[2] = molecular target: T2, RbABC (Rb amino acids 379-928, A/B pocket and carboxy-terminus) (Homo sapiens, UniProt P06400); assay: Rb in vitro binding assay, GST-RbABC; conditions: for Rb binding of Rak deletion forms: Rb fusion protein not specified
T2 construct: Rb fusion proteins encoding amino acids 379-928 (RbABC); made in house; host or cells: pGEX-4T plasmid
T2 sequence (P06400 379-928): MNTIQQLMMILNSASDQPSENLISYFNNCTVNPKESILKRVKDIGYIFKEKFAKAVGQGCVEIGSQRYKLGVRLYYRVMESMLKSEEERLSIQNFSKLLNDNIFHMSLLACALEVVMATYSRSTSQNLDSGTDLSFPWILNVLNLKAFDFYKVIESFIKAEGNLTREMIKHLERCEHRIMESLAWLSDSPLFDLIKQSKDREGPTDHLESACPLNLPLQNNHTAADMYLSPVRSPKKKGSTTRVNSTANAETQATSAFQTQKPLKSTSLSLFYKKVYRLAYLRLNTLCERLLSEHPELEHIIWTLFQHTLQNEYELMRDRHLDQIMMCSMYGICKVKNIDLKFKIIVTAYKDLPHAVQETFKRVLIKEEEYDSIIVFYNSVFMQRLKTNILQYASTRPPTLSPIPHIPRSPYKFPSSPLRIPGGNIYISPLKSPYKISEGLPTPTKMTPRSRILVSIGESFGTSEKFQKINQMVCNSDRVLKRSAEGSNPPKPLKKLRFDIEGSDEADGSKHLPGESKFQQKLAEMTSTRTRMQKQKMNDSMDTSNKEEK
Protocol: as §1
The same procedure was followed for Rb in vitro binding assays, except that the Rb-GST fusion proteins were incubated in the in vitro translated forms of Rak in NP-40 buffer containing 0.5% fraction V bovine serum albumin (Boehringer Mannheim). After three washes with the same buffer, bound proteins were analyzed by SDS-PAGE and detected by autoradiography. Rak was in vitro translated using the TnT-coupled transcription/translation system (Promega) with 2 ug of the pAlt-Rak plasmid. The Rak (1-152) construct was prepared by digesting the pAlt-Rak plasmid with EcoRI to obtain the 5′ EcoRI fragment of Rak.
An in vitro binding reaction was then used to further identify the essential components for the Rak-Rb interaction. In vitro translated Rak was incubated with two Rb-GST fusion proteins, where one encoded amino acids 379-928, spanning the A/B pocket and carboxy-terminus (RbABC), while the other fusion protein encoded amino acids 780-928, and represented only the carboxy-terminus (RbC). […] As a control, the Src protein was in vitro translated and subjected to the same binding reaction, and no binding of Src to any portion of Rb was detected (data not shown).

CSK (p50csk) = assay: In vitro kinase assay: phosphorylation of Rak carboxy-terminal peptides by CSK; format: biochemical; conditions: relative to wild-type peptide for the mutants
Protocol: Peptide, Preparation for Phosphorylation. Initially, the OAg was tested for phosphorylation by CSK in an in vitro kinase reaction and was phosphorylated. To further assess which tyrosine was phosphorylated, each of the four tyrosines in the substrate peptide were mutated to phenylalanine by the double-stranded, site-directed mutagenesis method (Deng and Nickoloff. Site-directed mutagenesis of virtually any plasmid by eliminating a unique site. Anal. Biochem., 200:81-88 (1992)). The plasmid was denatured by heating to 100° C. for 5 min and then annealed to a mutagenic primer and a second primer converting an Af/AII site on the plasmid to a Bg/II site. The mutagenic primers for the four tyrosines were: Y45Uf, 5′-[…]-3′ (SEQ ID NO:9); Y163F, 5′-[…]-3′ (SEQ ID NO:10); Y490F, 5′-TGAAGAC-TTTTTTGAAACAG-3′ (SEQ ID NO:11); and Y497F, 5′-[…]-3′ (SEQ ID NO:12).
Purified μ50^csk and Enzyme Assays. p50^csk was produced in S/9 cells from a Baculovirus vector containing the full-length csk cDNA (Okada et al., J. Biol. Chem; 264:20886-20893(1989)), purified according to Murphy et al. (Mol. Cell. Biol., 13:5290-5300 (1993), and mixed with the different peptides of Rak. These peptides correspond to the last 62 amino acids of the kinase, containing four tyrosine residues (Y450, Y463, Y490, and […]), and mutant peptides where each of the four tyrosines was […]. The phosphorylation of the native peptide was compared to the that of the mutant peptides. For the in vitro kinase assay, different amounts of p50^csk were mixed with different amount of the peptides in a reaction buffer (10 mM HEPES (pH 7.4) 10 mM MnCl21. Four μg bovine serum albumin were added to the 20-μl mixture, and the reaction was initiated with the addition of AIP to 1 μm and 10 μCl of 1 γ-^32P)ATP (3000 Ci/mmol; Amersham). Tubes were incubated at 30° C. for 15 min, and the reaction was stopped by the addition of SDS-PAGE sample buffer. The samples were boiled and analyzed on 15% SDS-PAGE gels, which were fixed, stained, and exposed to film at […].
The Carboxy Terminus of Rak Is Phosphorylated by CSK. Since CSK phosphorylates the carboxy terminal tyrosines of several other Src-related kinases, the ability of CSK to phosphorylate a recombinant carboxy-terminal peptide of Rak was analyzed. […] Since this peptide contained four tyrosines at positions 450, 463, 490, and 497, each tyrosine was individually mutated to phenylalanine and then the peptides were assayed for phosphorylation by CSK. […] Indeed, this residue corresponds to the CSK phosphorylation site for the other Src family members with regard to its localization in regard to the kinase domain, although the sequence context of this tyrosine differs from that of the other Src-like kinases.

B1: Rak (amino acids 1-152): in vitro translated amino-terminal fragment of Rak with unique amino-terminal region and SH3 domain (protein, UniProt P42685 1-152, looked up, fragment)
chain: MSNICQRLWEYLEPYLPCLSTEADKSTVIENPGALCSPQSQRHGHYFVALFDYQARTAEDLSFRAGDKLQVLDTLHEGWWFARHLEKRRDGSSQQLQGYIPSNYVAEDRSLQAEPWFFGAIGRSDAEKQLLYSENKTGSFLIRESESQKGEF
Which results are given for B1?
binding to RbC protein [1]: no longer detectable; less efficiency of binding to RbABC fusion protein ([2]; compared with full-length Rak): approximately 30%

B2: full-length Rak: in vitro translated full-length Rak protein (SEQ ID NO:2) (protein)
chain: MSNICQRLWEYLEPYLPCLSTEADKSTVIENPGALCSPQSQRHGHYFVALFDYHAPTAEELSFRAGDKLQVLDTLHEGWWFARHLEKRRDGSSQQLQGYIPSNYVAEDRSLQAEAWFFGAIRRSDAEKQLLYSENKTGSFLIRESESQKGEFSLSVLDGAVVKHYRIKRLDEGGFFLTRRRIFSTLNEFVSHYTKTSDGLCVKLGKPCLKIQVPAPFDLSYKTVDQWEIDRNSIQLLKRLGSGQFGEVWEGLWNNTTPVAVKTLKPGSMDPNDFLREAQIMKNLRHPKLIQLYAVCTLEDPIYIITELMRHGSLQEYLQNDTGSKIHLTQQVDMAAQVASGMAYLESRNYIHRDLAARNVLVGEHNIYKVADFGLARVFKVDNEDIYESRHEIKLPVKWTAPEAIRSNKFSIKSDVWSFGILLYEIITYGKMPYSGMTGAQVIQMLAQNYRLPQPSNCPQQFYNIMLECWNAEPKERPTFETLRWKLEDYFETDSSYSDANNFIR
With B2 as the molecule, how does the “binding to RbC protein, fold less than to RbABC” value [1] read?
The value was “approximately 5 fold”.

What about the “binding to RbABC fusion protein” value ([2]; in vitro translated protein, SDS-PAGE and autoradiography) of the same molecule?
The value was “bound efficiently”.

B3: wild-type peptide: hexahistidine fusion protein containing the 62 carboxy-terminal amino acids of Rak (protein, UniProt P42685 444-505, looked up, fragment)
chain: QMLAQNYRLPQPSNCPQQFYNIMLECWNAEPKERPTFETLRWKLEDYFETDSSYSDANNFIR
modifications: hexahistidine tag
notes: hexahistidine fusion protein containing the 62 carboxy-terminal amino acids of Rak
Which “phosphorylation by CSK” value (CSK (p50csk)) does the source give for B3 here?
The value was “readily phosphorylated”.

And the “phosphorylation by CSK” value (CSK (p50csk); listed as OAg)?
Its value is “phosphorylated”.

B4: mutant at position 450: 62-amino-acid carboxy-terminal Rak peptide with tyrosine 450 mutated to phenylalanine (protein, UniProt P42685 444-505, looked up, variant Y450F)
chain: B3 chain with Y7F
modifications: C-terminal 62 residues His tag
notes: 62-amino-acid carboxy-terminal Rak peptide with tyrosine 450 mutated to phenylalanine
Which “phosphorylation by CSK” value (CSK (p50csk)) does the source give for B4 here?
The value was “about one-half”.

B5: 497 mutant: 62-amino-acid carboxy-terminal Rak peptide with tyrosine 497 mutated to phenylalanine (protein, UniProt P42685 444-505, looked up, variant Y497F)
chain: B3 chain with Y54F
modifications: C-terminal 62 residues His tag
notes: 62-amino-acid carboxy-terminal Rak peptide with tyrosine 497 mutated to phenylalanine
Which “phosphorylation by CSK” value (CSK (p50csk)) does the source give for B5 here?
Its value is “barely detectable”.

B6: mutant at position 490: 62-amino-acid carboxy-terminal Rak peptide with tyrosine 490 mutated to phenylalanine (protein, UniProt P42685 444-505, looked up, variant Y490F)
chain: B3 chain with Y47F
modifications: C-terminal 62 residues His tag
notes: 62-amino-acid carboxy-terminal Rak peptide with tyrosine 490 mutated to phenylalanine
Which “phosphorylation by CSK” value (CSK (p50csk)) does the source give for B6 here?
The value was “about one-half”.

B7: Rak with amino acids 1-110 deleted: Rak lacking the unique N-terminal region and the SH3 domain (protein, UniProt P42685 111-505, looked up, fragment)
chain: LQAEPWFFGAIGRSDAEKQLLYSENKTGSFLIRESESQKGEFSLSVLDGAVVKHYRIKRLDEGGFFLTRRRIFSTLNEFVSHYTKTSDGLCVKLGKPCLKIQVPAPFDLSYKTVDQWEIDRNSIQLLKRLGSGQFGEVWEGLWNNTTPVAVKTLKPGSMDPNDFLREAQIMKNLRHPKLIQLYAVCTLEDPIYIITELMRHGSLQEYLQNDTGSKIHLTQQVDMAAQVASGMAYLESRNYIHRDLAARNVLVGEHNIYKVADFGLARVFKVDNEDIYESRHEIKLPVKWTAPEAIRSNKFSIKSDVWSFGILLYEIITYGKMPYSGMTGAQVIQMLAQNYRLPQPSNCPQQFYNIMLECWNAEPKERPTFETLRWKLEDYFETDSSYSDANNFIR
Which “Rb binding of Rak deletion forms” value [2] does the source give for B7 here?
The value was “minimally detectable”.

B8: Rak with amino acids 1-46 deleted: Rak lacking the unique N-terminal region (LPCLSTE sequence removed) (protein, UniProt P42685 47-505, looked up, fragment)
chain: FVALFDYQARTAEDLSFRAGDKLQVLDTLHEGWWFARHLEKRRDGSSQQLQGYIPSNYVAEDRSLQAEPWFFGAIGRSDAEKQLLYSENKTGSFLIRESESQKGEFSLSVLDGAVVKHYRIKRLDEGGFFLTRRRIFSTLNEFVSHYTKTSDGLCVKLGKPCLKIQVPAPFDLSYKTVDQWEIDRNSIQLLKRLGSGQFGEVWEGLWNNTTPVAVKTLKPGSMDPNDFLREAQIMKNLRHPKLIQLYAVCTLEDPIYIITELMRHGSLQEYLQNDTGSKIHLTQQVDMAAQVASGMAYLESRNYIHRDLAARNVLVGEHNIYKVADFGLARVFKVDNEDIYESRHEIKLPVKWTAPEAIRSNKFSIKSDVWSFGILLYEIITYGKMPYSGMTGAQVIQMLAQNYRLPQPSNCPQQFYNIMLECWNAEPKERPTFETLRWKLEDYFETDSSYSDANNFIR
With B8 as the molecule, how does the “Rb binding of Rak deletion forms” value [2] read?
Its value is “no change in Rb binding”.
